{"source": "paper PMC7594292", "about": "“Two conformations of DNA polymerase D-PCNA-DNA, an archaeal replisome complex, revealed by cryo-electron microscopy” (BMC Biology, 2020)", "molecules": {"B1": {"name": "primed DNA (30/45) (dsDNA)", "DNA 1": "CGAACTGCCTGGAATCCTGACGACATGTAG", "DNA 2": "TGAGGTGATCGTTCGCTACATGTCGTCAGGATTCCAGGCAGTTCG", "modifications": "four successive phosphorothioates near the 3' end of both strands"}, "B2": {"name": "primed DNA Cy5-pri32/temp45 (dsDNA)", "DNA 1": "CGAACTGCCTGGAATCCTGACGACATGTAGCG", "DNA 2": "B1 DNA 2"}, "B3": {"name": "Thermococcus kodakarensis proliferating cell nuclear antigen PCNA1 (TkoPCNA), homotrimer (natural protein)", "chain": "MPFEVVFDGAKEFADLIATASNLIDEAAFKFTEEGISMRAMDPSRVVLIDLNLPESIFSKYEVEEPETIGINMDQFKKILKRGKAKDTLILRKGDENFLEITFEGTAKRTFRLPLIDVEELELELPELPFTAKVVLLGEVLKEGIKDASLVSDAIKFIAKENEFTMKAEGETNEVEIRLTLEDEGLLDLEVEEETKSAYGIRYLSDMVKGIGKADEVILRFGNEMPLQMEYMIRDEGRLTFLLAPRVEE", "notes": "source: purified as described previously [23]"}}, "key": {"[1]": {"target": "Thermococcus kodakarensis proliferating cell nuclear antigen PCNA1 (TkoPCNA), homotrimer (UniProt Q5JF32)", "test": "SPR", "conditions": "PCNA immobilized on a sensor chip, PolD at 500 nM, read off a plot"}, "[2]": {"target": "DP1 (PolD small subunit);DP2 (PolD large subunit);TkoPCNA (PCNA1) (Thermococcus kodakarensis;Thermococcus …, UniProt Q5JET1;Q5JET0;Q5JET0;Q5JF32 1-735;1-963;1438-1798;1-249, ||)", "sequence (Q5JET0 1-963, one chain of several)": "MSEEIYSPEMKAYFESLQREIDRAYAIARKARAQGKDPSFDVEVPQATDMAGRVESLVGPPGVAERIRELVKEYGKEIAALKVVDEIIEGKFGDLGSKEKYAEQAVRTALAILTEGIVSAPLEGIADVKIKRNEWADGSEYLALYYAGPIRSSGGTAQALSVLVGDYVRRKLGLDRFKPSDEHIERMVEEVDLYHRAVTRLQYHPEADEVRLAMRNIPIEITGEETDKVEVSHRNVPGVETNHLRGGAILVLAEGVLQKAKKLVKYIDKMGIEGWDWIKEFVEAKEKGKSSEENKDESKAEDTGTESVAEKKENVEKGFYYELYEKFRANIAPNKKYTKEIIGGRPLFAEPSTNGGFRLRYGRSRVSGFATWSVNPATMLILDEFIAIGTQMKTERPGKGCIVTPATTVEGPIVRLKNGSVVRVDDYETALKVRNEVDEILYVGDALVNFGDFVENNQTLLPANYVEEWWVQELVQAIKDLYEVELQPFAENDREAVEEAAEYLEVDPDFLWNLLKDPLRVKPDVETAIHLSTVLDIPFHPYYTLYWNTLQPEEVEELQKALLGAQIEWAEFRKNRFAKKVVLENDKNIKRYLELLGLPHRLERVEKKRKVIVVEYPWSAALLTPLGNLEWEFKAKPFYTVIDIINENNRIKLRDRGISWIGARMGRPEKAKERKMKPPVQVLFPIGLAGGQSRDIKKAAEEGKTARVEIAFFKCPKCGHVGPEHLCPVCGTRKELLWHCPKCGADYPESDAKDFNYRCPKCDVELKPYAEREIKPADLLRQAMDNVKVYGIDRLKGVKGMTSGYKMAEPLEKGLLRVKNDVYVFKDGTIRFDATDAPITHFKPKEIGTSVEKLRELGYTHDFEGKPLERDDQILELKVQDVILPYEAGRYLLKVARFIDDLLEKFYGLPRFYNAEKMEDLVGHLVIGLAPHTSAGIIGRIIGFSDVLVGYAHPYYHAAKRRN", "test": "gel filtration; 50 mM NaCl elution; EMSA: 20 mM Tris-HCl pH 8.0, 10 mM KCl, 10 mM (NH4)2SO4, 1 mM DTT, 0.1 mg/ml BSA, 2 mM MgCl2, 40 C 10 min, 0.8% agarose 0.1x TAE; EM complex: 50 mM Tris-HCl pH", "conditions": "protein: recombinant;recombinant;recombinant; tags: ;;; copies: 1;1;1;3; primer-template, 5' overhang 15 nt on template"}, "[3]": {"target": "T1, DP1 (PolD small subunit);DP2CTD (Thermococcus kodakarensis;Thermococcus …, UniProt Q5JET1;Q5JET0 1-735;1474-1798, |)", "T1 sequence 1": "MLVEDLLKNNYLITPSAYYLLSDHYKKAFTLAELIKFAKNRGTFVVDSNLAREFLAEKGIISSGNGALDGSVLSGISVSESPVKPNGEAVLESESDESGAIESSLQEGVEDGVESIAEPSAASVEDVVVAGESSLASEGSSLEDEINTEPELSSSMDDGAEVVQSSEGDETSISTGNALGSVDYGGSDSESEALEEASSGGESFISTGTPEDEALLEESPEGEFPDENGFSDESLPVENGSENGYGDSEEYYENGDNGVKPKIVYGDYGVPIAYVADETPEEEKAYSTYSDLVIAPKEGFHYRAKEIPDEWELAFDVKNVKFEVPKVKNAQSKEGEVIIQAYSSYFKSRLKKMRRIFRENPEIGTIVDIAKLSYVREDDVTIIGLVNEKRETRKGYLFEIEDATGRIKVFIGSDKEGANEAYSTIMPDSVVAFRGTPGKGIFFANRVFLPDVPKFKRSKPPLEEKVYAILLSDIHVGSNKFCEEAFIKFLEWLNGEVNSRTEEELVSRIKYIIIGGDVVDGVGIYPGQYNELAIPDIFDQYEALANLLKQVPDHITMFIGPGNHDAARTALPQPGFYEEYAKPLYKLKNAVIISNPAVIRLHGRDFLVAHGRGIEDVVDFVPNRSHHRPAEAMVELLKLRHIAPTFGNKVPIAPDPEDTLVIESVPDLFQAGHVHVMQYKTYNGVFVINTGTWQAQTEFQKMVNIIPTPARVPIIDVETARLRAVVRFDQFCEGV", "T1 sequence 2": "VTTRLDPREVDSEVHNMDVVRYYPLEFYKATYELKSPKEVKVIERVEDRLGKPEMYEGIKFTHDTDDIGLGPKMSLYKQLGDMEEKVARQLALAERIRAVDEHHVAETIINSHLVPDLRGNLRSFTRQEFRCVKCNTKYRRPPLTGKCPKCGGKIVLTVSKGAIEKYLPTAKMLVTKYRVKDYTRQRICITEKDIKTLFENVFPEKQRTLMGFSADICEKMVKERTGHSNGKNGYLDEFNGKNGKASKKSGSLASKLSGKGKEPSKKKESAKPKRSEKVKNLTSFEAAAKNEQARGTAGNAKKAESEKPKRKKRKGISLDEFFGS", "test": "EMSA; 2 mM MgCl2; EMSA: 20 mM Tris-HCl pH 8.0, 10 mM KCl, 10 mM (NH4)2SO4, 1 mM DTT, 0.1 mg/ml BSA, 2 mM MgCl2, 40 C 10 min, 0.8% agarose 0.1x TAE; EM complex: 50 mM Tris-HCl pH", "conditions": "protein: recombinant;recombinant; tags: ;His; copies: 1;1; label: 5' Cy5 on primer; primer-template, 5' overhang 13 nt on template"}, "DP2CTD": {"target": "T2, DP2CTD (Thermococcus kodakarensis, UniProt Q5JET0 1474-1798)", "T2 sequence": "T1 sequence 2", "test": "EMSA; 2 mM MgCl2; readily detectable but weaker than DP1-DP2CTD; EMSA: 20 mM Tris-HCl pH 8.0, 10 mM KCl, 10 mM (NH4)2SO4, 1 mM DTT, 0.1 mg/ml BSA, 2 mM MgCl2, 40 C 10 min, 0.8% agarose 0.1x TAE; EM complex: 50 mM Tris-HCl pH", "conditions": "protein: recombinant; tags: His; label: 5' Cy5 on primer; primer-template, 5' overhang 13 nt on template"}, "[4]": {"target": "T3, PolDΔKR: PolD with DP1(K326A K328A) and DP2(K432A R434A R781A) (Thermococcus kodakarensis, DP1 residue 328 is Ala (wild type printed as both K328 and R328, so the Ala is spliced in; the mutagenic primer encodes Ala-Val-Ala at 326-328). DP2 is the mature intein-free form (1324 aa). Zn bound …)", "test": "SPR"}, "[5]": {"target": "T4, PolDΔPIPΔKR: PolD with DP1(K326A K328A) and DP2(K432A R434A R781A, Δ1314-1324) (Thermococcus kodakarensis, UniProt Q5JET0 1-1313, K432A | R434A | R781A, DP1 residue 328 is Ala (wild type printed as both K328 and R328, so the Ala is spliced in). DP2 is the mature intein-free form, residues 1-1313 (PIP box 1314-1324 deleted; mature 1313 = precursor …)", "test": "SPR"}, "[6]": {"target": "T5, PolDΔPIP: PolD with DP2(Δ1314-1324) (Thermococcus kodakarensis)", "test": "SPR"}, "[7]": {"target": "T6, Thermococcus kodakarensis DNA polymerase D (PolD), wild type, DP1-DP2 heterodimer (Thermococcus kodakarensis)", "test": "SPR"}, "[8]": {"target": "T3, PolDΔKR: PolD with DP1(K326A K328A) and …", "test": "SPR", "remark": "listed apart in the source"}, "[9]": {"target": "T4, PolDΔPIPΔKR: PolD with DP1(K326A K328A) …", "test": "SPR", "remark": "listed apart in the source"}, "[10]": {"target": "T5, PolDΔPIP: PolD with DP2(Δ1314-1324)", "test": "SPR", "remark": "listed apart in the source"}, "[11]": {"target": "T6, Thermococcus kodakarensis DNA …", "test": "SPR", "remark": "listed apart in the source"}, "[12]": {"target": "the molecule itself", "test": "cryo-EM structure; PolD-PCNA-primed DNA complex reconstituted from purified proteins without Mg2+ and isolated by gel filtration; Form A with DNA (25/35) at 6.9 Å, Form A and Form B with DNA (30/45); crystal structures and homology models fitted"}}}
{"molecule": "PolDΔPIP: PolD with DP2(Δ1314-1324) DP1:K326A; DP1:K328A; DP2:K432A; DP2:R434A; DP2:R781A", "values": [{"measurement": "response", "setting": "[1]; parent: est. 700", "result": 150, "unit": "RU"}]}
{"molecule": "Thermococcus kodakarensis DNA polymerase D (PolD), wild type, DP1-DP2 heterodimer DP1:K326A; DP1:K328A; DP2:K432A; DP2:R434A; DP2:R781A", "values": [{"measurement": "response", "setting": "[1]; parent: est. 1050", "result": 450, "unit": "RU"}]}
{"molecule": "B1", "values": [{"measurement": "binding result", "setting": "[2]", "result": "binds"}]}
{"molecule": "B2", "values": [{"measurement": "binding result", "setting": "[3]", "result": "binds"}, {"measurement": "binding result", "setting": "DP2CTD", "result": "binds"}]}
{"molecule": "B3", "values": [{"measurement": "koff", "setting": "[4]", "result": 0.0087, "unit": "s⁻¹"}, {"measurement": "koff", "setting": "[5]", "result": 0.016, "unit": "s⁻¹"}, {"measurement": "koff", "setting": "[6]", "result": 0.006, "unit": "s⁻¹"}, {"measurement": "koff", "setting": "[7]", "result": 0.0048, "unit": "s⁻¹"}, {"measurement": "Kd", "setting": "[8]", "result": 4.5, "unit": "µM"}, {"measurement": "Kd", "setting": "[9]", "result": 12, "unit": "µM"}, {"measurement": "Kd", "setting": "[10]", "result": 1.3, "unit": "µM"}, {"measurement": "Kd", "setting": "[11]", "result": 0.48, "unit": "µM"}, {"measurement": "stoichiometry N", "setting": "[12]", "result": 3}]}
